Measured values published in patent publication US20240174765A1 (ACADEMIA SINICA, published 2024).
Values belong to the binder of their own block, whether it stands above or below them.

Tests used:
[1] = biological target: T1, enolase 1 (ENO1), endogenous in CL1-5 human lung cancer cells (human, UniProt P06733 2-434); assay: flow cytometry on live cells
T1 construct: whole, on cells; Used for ENO1 on the surface of live or fixed CL1-5 cells, and for endogenous ENO1 in CL1-5 membrane extracts and lysates (cross-link IP, co-IP); also called alpha-enolase; surface form ENO1

[2] = biological target: T1, enolase 1 (ENO1), endogenous in CL1-5 …; assay: flow cytometry on live CL1-5 cells

T1 sequence (P06733 2-434): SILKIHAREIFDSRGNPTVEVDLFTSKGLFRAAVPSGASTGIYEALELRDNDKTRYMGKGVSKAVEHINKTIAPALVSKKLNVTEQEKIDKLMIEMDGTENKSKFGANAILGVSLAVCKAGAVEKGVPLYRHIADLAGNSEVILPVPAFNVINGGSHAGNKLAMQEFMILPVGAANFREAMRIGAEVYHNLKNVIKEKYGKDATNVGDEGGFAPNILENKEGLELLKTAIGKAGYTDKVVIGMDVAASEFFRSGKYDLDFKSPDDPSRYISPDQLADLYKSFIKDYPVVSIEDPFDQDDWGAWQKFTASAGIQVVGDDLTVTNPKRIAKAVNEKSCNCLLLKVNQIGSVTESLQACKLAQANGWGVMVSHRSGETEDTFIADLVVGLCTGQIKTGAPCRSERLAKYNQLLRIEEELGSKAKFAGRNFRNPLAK

- binding result [1]: binds
B1: chimeric ENO1-22 (chENO1-22) (antibody, V domains shown)
VH: QVQLQQSGPEVVRPGVSVKISCKGSGYTFTDYAMHWVKQSHAKSLEWIGVISTYNGNTNYNQKFKGKATMTVDKSSSTAYMELARLTSEDSAIYYCARSPLRYWGQGTTLTVSS
VL: QIVLSQSPAILSASPGEKVTMTCRASSSVSYMHWYQQKPGSSPKPWIYATSNLASGVPARFSGSGSGTSYSLTISRVEAEDAATYYCQQWSSNPLTFGAGTKLELK
notes: Variable domain of anti-ENO1 mAb-22 cloned into a human IgG Fc vector; also called chimeric ENO1 mAb; chimeric ENO1 antibody

- binding result [2]: binds
B2: anti-ENO1 mAb-22 (antibody, V domains shown)
VH: B1 VH
VL: B1 VL
notes: Mouse hybridoma monoclonal antibody; also called ENO1-22; anti-ENO1 mAb-22 antibody
